Measurements as given in patent publication US20160115500A1 (University of California, published 2016).
Substitutions are numbered along the chain they refer to. Names may count otherwise.

T1: GAL4 activation domain fusion (ACT) to HAB1 (UniProt Q9CAJ0 23-511, limits assumed)
T1 construct: pACT-HAB1 fusion in yeast reporter strains; also called pACT-HAB1
T1 sequence (looked up): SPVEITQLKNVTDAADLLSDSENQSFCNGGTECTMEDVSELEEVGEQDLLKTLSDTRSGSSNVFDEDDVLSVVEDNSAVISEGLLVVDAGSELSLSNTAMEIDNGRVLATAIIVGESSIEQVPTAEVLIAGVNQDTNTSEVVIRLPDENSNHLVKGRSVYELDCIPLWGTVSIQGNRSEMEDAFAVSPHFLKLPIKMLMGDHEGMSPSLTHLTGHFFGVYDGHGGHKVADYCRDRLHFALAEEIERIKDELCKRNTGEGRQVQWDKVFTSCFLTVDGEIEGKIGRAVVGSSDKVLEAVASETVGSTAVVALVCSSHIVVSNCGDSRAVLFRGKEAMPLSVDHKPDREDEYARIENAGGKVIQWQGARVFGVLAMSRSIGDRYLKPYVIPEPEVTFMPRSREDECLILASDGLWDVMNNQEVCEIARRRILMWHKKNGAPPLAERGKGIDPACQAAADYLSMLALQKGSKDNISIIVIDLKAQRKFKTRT

B1: PYR1^K59R,E94A (receptor, not shown: small tags and cut ends)
chain: MPSELTPEERSELKNSIAEFHTYQLDPGSCSSLHAQRIHAPPELVWSIVRRFDKPQTYRHFIKSCSVEQNFEMRVGCTRDVIVISGLPANTSTARLDILDDERRVTGFSIIGGEHRLTNYKSVTTVHRFEKENRIWTVVLESYVVDMPEGNSEDDTRMFADTVVKLNLQKLATVAEAMARNSGDGSGSQVT
notes: pBD-PYR1 fusion in yeast
B2: PYR1^K59R,E94A,N167C (receptor, not shown: small tags and cut ends)
chain: B1 chain with N167C
notes: pBD-PYR1 fusion in yeast
B3: PYR1^K59R,F108A (receptor, not shown: small tags and cut ends)
chain: B1 chain with A94E, F108A
notes: pBD-PYR1 fusion in yeast
B4: PYR1^K59R,F108A,S122G (receptor, not shown: small tags and cut ends)
chain: B1 chain with A94E, F108A, S122G
notes: pBD-PYR1 fusion in yeast; also called pBD-PYR1^K59R,F108A,S122G
B5: PYR1^K59R,V81I,F108A,S122G,A160V (receptor)
chain: B1 chain with V81I, A94E, F108A, S122G, A160V
notes: pBD-PYR1 fusion in yeast
B6: PYR1^K59R,F108T (receptor, not shown: small tags and cut ends)
chain: B1 chain with A94E, F108T
notes: pBD-PYR1 fusion in yeast
B7: PYR1^K59R,F108N (receptor, not shown: small tags and cut ends)
chain: B1 chain with A94E, F108N
notes: pBD-PYR1 fusion in yeast
B8: PYR1^K59R,F108A,S122G,V81I (receptor, not shown: small tags and cut ends)
chain: B1 chain with V81I, A94E, F108A, S122G
notes: pBD-PYR1 fusion in yeast
B9: PYR1^K59R,F108A,S122G,V164I (receptor)
chain: B1 chain with A94E, F108A, S122G, V164I
notes: pBD-PYR1 fusion in yeast
B10: PYR1^K59R,F108A,S122G,V83L (receptor)
chain: B1 chain with V83L, A94E, F108A, S122G
notes: pBD-PYR1 fusion in yeast
B11: PYR1^Y58H,K59R,V81I,F108A,S122G,F159L (receptor, not shown: small tags and cut ends)
chain: B1 chain with Y58H, V81I, A94E, F108A, S122G, F159L
notes: pBD-PYR1 fusion in yeast; also called PYR1^MANDI; pBD-PYR1^MANDI
B12: PYR1^K59R,F108E (receptor, not shown: small tags and cut ends)
chain: B1 chain with A94E, F108E
notes: pBD-PYR1 fusion in yeast
B13: PYR1^K59R,F108A,S122G,A160V (receptor)
chain: B1 chain with A94E, F108A, S122G, A160V
notes: pBD-PYR1 fusion in yeast
B14: PYR1^K59R,F108G (receptor, not shown: small tags and cut ends)
chain: B1 chain with A94E, F108G
notes: pBD-PYR1 fusion in yeast
B15: PYR1^Y58H,K59R,V81I,F108A,S122G,V164I (receptor, not shown: small tags and cut ends)
chain: B1 chain with Y58H, V81I, A94E, F108A, S122G, V164I
notes: pBD-PYR1 fusion in yeast
B16: PYR1^K59R,F108V (receptor, not shown: small tags and cut ends)
chain: B1 chain with A94E, F108V
notes: pBD-PYR1 fusion in yeast
B17: PYR1^Y58H,K59R,V81I,F108A,S122G (receptor)
chain: B1 chain with Y58H, V81I, A94E, F108A, S122G
notes: pBD-PYR1 fusion in yeast
B18: PYR1^K59R,F108A,S122G,L87A (receptor)
chain: B1 chain with L87A, A94E, F108A, S122G
notes: pBD-PYR1 fusion in yeast
B19: PYR1^K59R,F108S (receptor)
chain: B1 chain with A94E, F108S
notes: pBD-PYR1 fusion in yeast
B20: PYR1^K59R,F108Q (receptor, not shown: small tags and cut ends)
chain: B1 chain with A94E, F108Q
notes: pBD-PYR1 fusion in yeast
B21: PYR1^K59R,F108A,S122G,V81T (receptor, not shown: small tags and cut ends)
chain: B1 chain with V81T, A94E, F108A, S122G
notes: pBD-PYR1 fusion in yeast
B22: PYR1^K59R,F108Q,S122G (receptor, not shown: small tags and cut ends)
chain: B1 chain with A94E, F108Q, S122G
notes: pBD-PYR1 fusion in yeast
B23: PYR1^K59R,F108A,S122G,F159L (receptor)
chain: B1 chain with A94E, F108A, S122G, F159L
notes: pBD-PYR1 fusion in yeast
B24: PYR1^K59R,F108A,S122G,V81C (receptor, not shown: small tags and cut ends)
chain: B1 chain with V81C, A94E, F108A, S122G
notes: pBD-PYR1 fusion in yeast
B25: PYR1^K59R,F108A,S122G,F159M (receptor)
chain: B1 chain with A94E, F108A, S122G, F159M
notes: pBD-PYR1 fusion in yeast
B26: PYR1^Y58H,K59R,V83L,F108A,S122G (receptor, not shown: small tags and cut ends)
chain: B1 chain with Y58H, V83L, A94E, F108A, S122G
notes: pBD-PYR1 fusion in yeast
B27: PYR1^K59R,F108I,S122G (receptor, not shown: small tags and cut ends)
chain: B1 chain with A94E, F108I, S122G
notes: pBD-PYR1 fusion in yeast
B28: PYR1^K59R,F108I (receptor, not shown: small tags and cut ends)
chain: B1 chain with A94E, F108I
notes: pBD-PYR1 fusion in yeast
B29: PYR1^K59R,S122G (receptor, not shown: small tags and cut ends)
chain: B1 chain with A94E, S122G
notes: pBD-PYR1 fusion in yeast
B30: PYR1^K59R,F108A,S122G,F159V (receptor)
chain: B1 chain with A94E, F108A, S122G, F159V
notes: pBD-PYR1 fusion in yeast
B31: PYR1^Y58H,K59R,F108A,S122G (receptor)
chain: B1 chain with Y58H, A94E, F108A, S122G
notes: pBD-PYR1 fusion in yeast
B32: PYR1^K59R,F108C (receptor, not shown: small tags and cut ends)
chain: B1 chain with A94E, F108C
notes: pBD-PYR1 fusion in yeast
B33: PYR1^K59R,V164L (receptor, not shown: small tags and cut ends)
chain: B1 chain with A94E, V164L
notes: pBD-PYR1 fusion in yeast
B34: PYR1^K59R,V164M (receptor, not shown: small tags and cut ends)
chain: B1 chain with A94E, V164M
notes: pBD-PYR1 fusion in yeast
B35: PYR1^K59R,V164S (receptor, not shown: small tags and cut ends)
chain: B1 chain with A94E, V164S
notes: pBD-PYR1 fusion in yeast
B36: PYR1^K59R,V164C (receptor, not shown: small tags and cut ends)
chain: B1 chain with A94E, V164C
notes: pBD-PYR1 fusion in yeast
B37: PYR1^K59R,V164A (receptor, not shown: small tags and cut ends)
chain: B1 chain with A94E, V164A
notes: pBD-PYR1 fusion in yeast
B38: PYR1^K59R,V164G (receptor, not shown: small tags and cut ends)
chain: B1 chain with A94E, V164G
notes: pBD-PYR1 fusion in yeast
B39: PYR1^K59R,V164E (receptor, not shown: small tags and cut ends)
chain: B1 chain with A94E, V164E
notes: pBD-PYR1 fusion in yeast
B40: PYR1^K59R,V164T (receptor, not shown: small tags and cut ends)
chain: B1 chain with A94E, V164T
notes: pBD-PYR1 fusion in yeast
B41: PYR1^K59R,V164F (receptor, not shown: small tags and cut ends)
chain: B1 chain with A94E, V164F
notes: pBD-PYR1 fusion in yeast
B42: PYR1^K59R,V164Q (receptor, not shown: small tags and cut ends)
chain: B1 chain with A94E, V164Q
notes: pBD-PYR1 fusion in yeast
B43: PYR1^K59R,V164H (receptor, not shown: small tags and cut ends)
chain: B1 chain with A94E, V164H
notes: pBD-PYR1 fusion in yeast
B44: PYR1^K59R,V164N (receptor, not shown: small tags and cut ends)
chain: B1 chain with A94E, V164N
notes: pBD-PYR1 fusion in yeast

The binders below were run against T1, GAL4 activation domain fusion (ACT) to … (assay: yeast two-hybrid, X-gal; lowest fludioxonil concentration giving signal).

Point of comparison: B1, Threshold 1 µM. Against it:
- B2 — 10-fold higher, 10 µM

What follows are binders tested against T1, GAL4 activation domain fusion (ACT) to … (assay: yeast two-hybrid, X-gal; lowest mandipropamid concentration giving signal).

Point of comparison: B5, Threshold 0.05 µM. Against it:
- B3 — 2000-fold higher, 100 µM
- B4 — 20-fold higher, 1 µM
- B6 — 2000-fold higher, 100 µM
- B7 — 2000-fold higher, 100 µM
- B8 — 5-fold higher, 0.25 µM
- B9 — 5-fold higher, 0.25 µM
- B10 — the same, 0.05 µM
- B11 — 25-fold lower, 0.002 µM
- B12 — 2000-fold higher, 100 µM
- B13 — 5-fold higher, 0.25 µM
- B14 — 2000-fold higher, 100 µM
- B15 — 5-fold lower, 0.01 µM
- B16 — 2000-fold higher, 100 µM
- B17 — the same, 0.05 µM
- B18 — 5-fold higher, 0.25 µM
- B19 — 2000-fold higher, 100 µM
- B20 — 2000-fold higher, 100 µM
- B21 — 5-fold higher, 0.25 µM
- B22 — 200-fold higher, 10 µM
- B23 — the same, 0.05 µM
- B24 — 5-fold higher, 0.25 µM
- B25 — 5-fold higher, 0.25 µM
- B26 — 5-fold lower, 0.01 µM
- B27 — 200-fold higher, 10 µM
- B28 — 2000-fold higher, 100 µM
- B29 — 2000-fold higher, 100 µM
- B30 — 5-fold higher, 0.25 µM
- B31 — 5-fold higher, 0.25 µM
- B32 — 2000-fold higher, 100 µM

Each binder was assayed against T1, GAL4 activation domain fusion (ACT) to … (assay: yeast two-hybrid, X-gal; lowest dichlobenil concentration giving signal).

Point of comparison: B43, Threshold 100 µM. Against it:
- B33 — the same, 100 µM
- B34 — the same, 100 µM
- B35 — the same, 100 µM
- B36 — the same, 100 µM
- B37 — the same, 100 µM
- B12 — the same, 100 µM
- B38 — the same, 100 µM
- B39 — the same, 100 µM
- B40 — the same, 100 µM
- B41 — the same, 100 µM
- B42 — the same, 100 µM
- B44 — the same, 100 µM
